Publication PMC11246403

Experiments:
KNP-301 = KNP-301 (UniProt Q9Y279); test: SPR
C3 = C3 (UniProt P01024); test: ELISA
Human VEGF165 (human) = test: ELISA
[1] = target: cynomolgus C3b (cynomolgus monkey); test: ELISA
[2] = target: cynomolgus VEGF (cynomolgus monkey); test: ELISA
human C3b (human) = human C3b (human) (UniProt P01024); test: ELISA
rabbit C3b (rabbit) = rabbit C3b (rabbit) (UniProt P12247); test: ELISA
rabbit VEGF (rabbit) = test: ELISA
rat C3b (rat) = rat C3b (rat) (UniProt P01026); test: ELISA
Sequence of UniProt P01026 (P01026 25-1663): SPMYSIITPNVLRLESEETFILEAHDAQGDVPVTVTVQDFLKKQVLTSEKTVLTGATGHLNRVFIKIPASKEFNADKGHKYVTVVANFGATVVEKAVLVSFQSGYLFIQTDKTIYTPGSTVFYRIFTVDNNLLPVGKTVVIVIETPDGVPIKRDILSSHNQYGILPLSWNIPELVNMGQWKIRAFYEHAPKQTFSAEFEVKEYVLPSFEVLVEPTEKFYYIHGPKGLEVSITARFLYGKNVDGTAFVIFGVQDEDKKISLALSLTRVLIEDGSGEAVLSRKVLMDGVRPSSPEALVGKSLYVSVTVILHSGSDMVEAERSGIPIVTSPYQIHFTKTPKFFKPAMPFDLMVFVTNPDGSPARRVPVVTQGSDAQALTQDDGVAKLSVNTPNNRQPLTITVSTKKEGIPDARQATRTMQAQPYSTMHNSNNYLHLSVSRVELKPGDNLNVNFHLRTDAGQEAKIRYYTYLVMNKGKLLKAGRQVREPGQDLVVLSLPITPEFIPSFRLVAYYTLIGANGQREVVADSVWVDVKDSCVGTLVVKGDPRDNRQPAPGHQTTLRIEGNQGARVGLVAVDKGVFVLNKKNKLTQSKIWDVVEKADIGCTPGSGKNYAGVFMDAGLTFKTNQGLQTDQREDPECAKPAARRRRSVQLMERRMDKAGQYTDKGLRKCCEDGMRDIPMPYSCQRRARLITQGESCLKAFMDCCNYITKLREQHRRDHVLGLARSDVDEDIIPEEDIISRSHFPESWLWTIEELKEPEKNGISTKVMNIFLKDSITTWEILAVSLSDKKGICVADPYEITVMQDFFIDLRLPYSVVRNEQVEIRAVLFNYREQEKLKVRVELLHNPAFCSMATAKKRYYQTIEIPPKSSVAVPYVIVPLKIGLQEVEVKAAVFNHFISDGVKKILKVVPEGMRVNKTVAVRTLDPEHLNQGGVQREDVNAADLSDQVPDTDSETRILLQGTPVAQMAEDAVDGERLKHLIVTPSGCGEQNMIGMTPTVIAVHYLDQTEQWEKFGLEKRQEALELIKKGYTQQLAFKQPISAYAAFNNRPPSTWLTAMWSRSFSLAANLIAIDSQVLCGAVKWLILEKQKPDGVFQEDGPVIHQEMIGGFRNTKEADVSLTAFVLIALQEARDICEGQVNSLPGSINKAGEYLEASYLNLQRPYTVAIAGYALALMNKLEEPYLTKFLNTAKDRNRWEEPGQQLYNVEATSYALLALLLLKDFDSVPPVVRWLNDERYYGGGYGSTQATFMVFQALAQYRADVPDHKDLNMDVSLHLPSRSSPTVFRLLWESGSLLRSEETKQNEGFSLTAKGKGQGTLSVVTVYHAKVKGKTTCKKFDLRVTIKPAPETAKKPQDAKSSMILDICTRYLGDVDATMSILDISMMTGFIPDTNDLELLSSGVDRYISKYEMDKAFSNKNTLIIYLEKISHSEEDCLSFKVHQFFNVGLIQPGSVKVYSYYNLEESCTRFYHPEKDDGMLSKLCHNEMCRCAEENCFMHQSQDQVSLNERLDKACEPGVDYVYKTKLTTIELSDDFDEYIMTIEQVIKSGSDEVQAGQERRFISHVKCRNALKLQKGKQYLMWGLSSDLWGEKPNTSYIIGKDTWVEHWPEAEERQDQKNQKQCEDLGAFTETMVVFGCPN

rat VEGF (rat) = rat VEGF (rat) (UniProt P16612); test: ELISA

Sequence of UniProt P12247 (P12247 whole entry, chain 1 of 2): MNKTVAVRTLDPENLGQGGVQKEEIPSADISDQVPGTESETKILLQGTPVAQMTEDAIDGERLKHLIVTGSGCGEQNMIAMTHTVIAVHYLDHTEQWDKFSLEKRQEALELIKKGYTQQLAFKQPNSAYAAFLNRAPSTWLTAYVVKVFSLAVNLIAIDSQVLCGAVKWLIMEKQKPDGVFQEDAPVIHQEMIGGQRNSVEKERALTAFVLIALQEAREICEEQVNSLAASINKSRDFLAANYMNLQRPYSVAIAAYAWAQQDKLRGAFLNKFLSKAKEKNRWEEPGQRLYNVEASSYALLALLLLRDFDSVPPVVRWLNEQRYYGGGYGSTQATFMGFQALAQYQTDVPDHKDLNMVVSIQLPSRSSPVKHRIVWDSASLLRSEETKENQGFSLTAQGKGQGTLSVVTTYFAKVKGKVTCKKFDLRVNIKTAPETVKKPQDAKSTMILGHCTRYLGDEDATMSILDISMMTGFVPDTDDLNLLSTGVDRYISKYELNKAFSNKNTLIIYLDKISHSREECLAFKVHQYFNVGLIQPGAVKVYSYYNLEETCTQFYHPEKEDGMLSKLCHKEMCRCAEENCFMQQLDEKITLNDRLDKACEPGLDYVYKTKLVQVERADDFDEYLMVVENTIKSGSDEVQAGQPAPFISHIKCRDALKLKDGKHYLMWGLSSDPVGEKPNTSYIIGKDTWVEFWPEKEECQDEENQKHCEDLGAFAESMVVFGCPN
Sequence of UniProt P12247 (P12247 whole entry, chain 2 of 2): as the sequence (P12247 whole entry, chain 1 of 2) above

Row | Substance | Kd (KNP-301) [nM] | fold lower binding affinity than to C3b (ratio of IC50 values) (C3) [fold] | relative binding affinity (%) (Human VEGF165 (human)) | relative binding affinity (%) [1] [%] | relative binding affinity (%) [2] [%] | relative binding affinity (%) (human C3b (human)) | relative binding affinity (%) (rabbit C3b (rabbit)) | relative binding affinity (%) (rabbit VEGF (rabbit)) | relative binding affinity (%) (rat C3b (rat)) | relative binding affinity (%) (rat VEGF (rat))
1 | human C3b (from UniProt P01024 23-667; P01024 749-1663) (natural protein) | 4.34 | – | – | – | – | – | – | – | – | –
2 | Human VEGF165 (ligand) | 0.0628 | – | – | – | – | – | – | – | – | –
3 | KNP-301 (from UniProt Q9Y279 20-283) (Fc fusion) | – | 10 | 100 | 78.3 | 75.8 | 100 | 1.2 | 165 | 6.3 | 80.8
